Data from patent publication US20100041597A1 (published 2010).

What was measured:
[1] = target: T1, PKC-βI (purified isoform) (Homo sapiens (Human), UniProt P05771 2-671); experiment: competitive ELISA on purified PKC-βI vs anti-PKC-βI Ab; PRE 200 µM
T1 construct: also called PKC-beta I
Procedure: (§1) Greiner 96 well ELISA plates were coated with the appropriate PKC isoform diluted in PBSN (PBS with Calcium/Magnesium+0.05% Sodium azide w/w). 50 μL/well at 250 ng/mL was used. Control wells contained PBSN only. Plates were incubated overnight at 4° C.
(§2) The plates were washed 3 times with 200 μL of dH₂O per well, then 100 μL of blocking solution was added per well and the plate incubated for 1 h at 37° C. The washing steps with dH₂O were repeated and 50 μL of the appropriate PRE solution (PRE stock solution [20 mM in DMSO] diluted in PBSN) was added and the plate incubated for 1 h at room temperature.
(§3) 50 μL of 1:1000 dilution of Alkaline Phosphatase (AP) conjugated antibody (anti-rabbit for all except zeta, which was anti-goat) was then added and the plate incubated for 1 h at room temperature. Washing with dH₂O was then repeated. Finally, 100 μL of pNPP solution in pNPP buffer (2 mM MgCl₂, 100 mM Sodium bicarbonate in water, pH 9.8) was added to all wells and incubated for 8 minutes for α, βI, βII ε, and ζ, or for 15-20 mins for […] (until sufficient coloration is observed). The reaction was stopped by addition of Stop solution (2N NaOH) and the absorbance at 405 nm was read on a Galaxy Plate reader.

[2] = target: T2, PKC-βII (purified isoform) (Homo sapiens (Human), UniProt P05771 2-621); experiment: competitive ELISA on purified PKC-βII vs anti-PKC-βII Ab; PRE 100 µM
T2 construct: also called PKC-beta II
Procedure: as §1, §2, §3

[3] = target: T3, PKC-ι (endogenous, human cell extracts) (human, UniProt P41743 2-596); experiment: Western-blot competition on cell extracts against the anti-PKC-ι primary antibody; band densitometry
T3 construct: also called PKC-iota
T3 sequence (looked up): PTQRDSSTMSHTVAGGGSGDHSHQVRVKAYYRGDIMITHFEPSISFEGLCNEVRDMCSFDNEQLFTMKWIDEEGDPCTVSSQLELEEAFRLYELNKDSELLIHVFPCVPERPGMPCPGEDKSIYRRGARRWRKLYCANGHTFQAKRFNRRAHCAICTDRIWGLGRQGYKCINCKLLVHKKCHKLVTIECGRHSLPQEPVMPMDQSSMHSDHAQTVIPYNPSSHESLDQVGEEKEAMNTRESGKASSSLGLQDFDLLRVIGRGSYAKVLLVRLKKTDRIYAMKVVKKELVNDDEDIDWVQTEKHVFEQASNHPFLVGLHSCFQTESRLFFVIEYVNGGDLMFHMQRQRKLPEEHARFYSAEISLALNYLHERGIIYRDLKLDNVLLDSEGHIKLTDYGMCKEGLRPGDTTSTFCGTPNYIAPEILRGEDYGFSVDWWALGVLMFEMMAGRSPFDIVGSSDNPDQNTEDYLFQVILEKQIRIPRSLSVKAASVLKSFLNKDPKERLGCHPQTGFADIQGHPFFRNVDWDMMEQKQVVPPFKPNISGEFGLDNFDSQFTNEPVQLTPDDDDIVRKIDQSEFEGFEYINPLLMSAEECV
Procedure: Binding efficiency and specificity of the peptides PRE 2, 3, 4, 5, 6, 7, 8, 9, 10, 11, 12 and 13 (see Table 3) was also tested using cytoplasmic extracts from different cell lines expressing appropriate PKC isoforms as described for Example 1. Briefly, the protein cytoplasmic extracts were separated by electrophoresis and transferred onto nitrocellulose membranes by standard Western blotting procedures. The bands on the Western blots were detected with matching primary antibodies and alkaline phosphatase conjugated secondary antibody. The bands were then scanned and the relative density measurements obtained.
This procedure to assess the binding characteristics of the PREs is based on competition binding of the PRE with the primary anti-isoform PKC specific antibodies. The lower the measured band density, the greater the binding of the PRE to the PKC isoform. The PREs were added at 10 and 20 times (10×, 20×) the primary antibody concentration, according to classical competition between antigenic peptide and primary antibody. The following cell lines (obtained from the ATCC) were used: H661—NCI human lung carcinoma NSCLC; MDAMB231—human highly invasive breast cancer cell line from pleural effusion; LS180—human colon adenocarcinoma; LnCAP—human prostate adenocarcinoma; CCD16Lu—human lung fibroblasts; Du145—human prostate carcinoma brain metastasis, and T24—human bladder carcinoma.

[4] = target: T4, PKC-δ (purified isoform) (Homo sapiens (Human), UniProt Q05655 1-676); experiment: competitive ELISA on purified PKC-δ vs anti-PKC-δ Ab; PRE 200 µM
T4 construct: also called PKC-delta; PKCdelta
Procedure: as §1, §2, §3

[5] = target: T1, PKC-βI (purified isoform); experiment: competitive ELISA on purified PKC-βI vs anti-PKC-βI Ab; PRE 50 µM
Procedure: as §1, §2, §3

[6] = target: T2, PKC-βII (purified isoform); experiment: summary grade, purified isoform ELISA
[7] = target: T1, PKC-βI (purified isoform); experiment: competitive ELISA on purified PKC-βI vs anti-PKC-βI Ab; PRE 100 µM
Procedure: as §1, §2, §3

[8] = target: T4, PKC-δ (purified isoform); experiment: competitive ELISA on purified PKC-δ vs anti-PKC-δ Ab; PRE 100 µM
Procedure: as §1, §2, §3

[9] = target: T2, PKC-βII (purified isoform); experiment: competitive ELISA on purified PKC-βII vs anti-PKC-βII Ab; PRE 200 µM
Procedure: as §1, §2, §3

[10] = target: T5, PKC-α (endogenous, human cell lysates and cells) (human, UniProt P17252 2-672); experiment: anti-PKC-α immunofluorescence, V5E-transfected IMR-32 cells loaded with PRE (label on PKC-α and V5E); control with endocytosis reagent 113
T5 construct: Endogenous protein of human cell lysates, on Western blot membranes (denatured) or in fixed cells; also called PKC-alpha; PKC-A
Source text: Neuroblastoma cells from the IMR-32 cell line were stably transfected with a vector containing the V5E sequence of PKC-α as outlined above in Example 13. The V5E sequence is part of the antigenic amino acid sequence that is used to raise the commercially available anti-PKC-α isoform-specific antibody.
The peptides PRE 1, 2, 3, 4, 5, 6, 7, 8, 9, 10, 11, 12 and 13 (see Table 3) were incorporated into the transfected IMR-32 cells via pinocytic endocytosis (Molecular Probes) according to the supplier's recommendations. Following fixation and permeabilization, PKC-α was detected using an Alexa fluor secondary antibody (as described above in Example 8).

[11] = target: T4, PKC-δ (purified isoform); experiment: competitive ELISA on purified PKC-δ vs anti-PKC-δ Ab; PRE 50 µM
Procedure: as §1, §2, §3

[12] = target: T2, PKC-βII (purified isoform); experiment: competitive ELISA on purified PKC-βII vs anti-PKC-βII Ab; PRE 50 µM
Procedure: as §1, §2, §3

T2 sequence (P05771 other isoform, or with tags, fused parts or gaps limits assumed): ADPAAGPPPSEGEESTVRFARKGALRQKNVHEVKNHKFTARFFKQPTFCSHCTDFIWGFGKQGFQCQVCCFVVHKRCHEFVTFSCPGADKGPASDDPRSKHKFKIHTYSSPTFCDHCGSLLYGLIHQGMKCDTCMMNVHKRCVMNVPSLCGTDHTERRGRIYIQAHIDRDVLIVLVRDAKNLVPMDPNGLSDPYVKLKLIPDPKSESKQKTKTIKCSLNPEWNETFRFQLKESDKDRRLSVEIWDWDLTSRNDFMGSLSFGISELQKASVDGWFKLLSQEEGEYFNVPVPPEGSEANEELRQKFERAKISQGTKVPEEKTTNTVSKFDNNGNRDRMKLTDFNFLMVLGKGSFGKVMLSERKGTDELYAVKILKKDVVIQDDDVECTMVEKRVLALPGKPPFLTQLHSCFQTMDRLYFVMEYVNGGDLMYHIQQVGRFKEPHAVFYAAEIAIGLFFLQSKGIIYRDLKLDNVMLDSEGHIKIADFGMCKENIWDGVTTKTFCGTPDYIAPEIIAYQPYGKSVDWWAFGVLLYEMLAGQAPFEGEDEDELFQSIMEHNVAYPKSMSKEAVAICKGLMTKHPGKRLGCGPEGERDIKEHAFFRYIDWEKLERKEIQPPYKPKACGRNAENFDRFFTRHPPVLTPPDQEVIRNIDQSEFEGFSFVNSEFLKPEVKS
T4 sequence (Q05655 whole entry, stated change not applied, canonical isoform): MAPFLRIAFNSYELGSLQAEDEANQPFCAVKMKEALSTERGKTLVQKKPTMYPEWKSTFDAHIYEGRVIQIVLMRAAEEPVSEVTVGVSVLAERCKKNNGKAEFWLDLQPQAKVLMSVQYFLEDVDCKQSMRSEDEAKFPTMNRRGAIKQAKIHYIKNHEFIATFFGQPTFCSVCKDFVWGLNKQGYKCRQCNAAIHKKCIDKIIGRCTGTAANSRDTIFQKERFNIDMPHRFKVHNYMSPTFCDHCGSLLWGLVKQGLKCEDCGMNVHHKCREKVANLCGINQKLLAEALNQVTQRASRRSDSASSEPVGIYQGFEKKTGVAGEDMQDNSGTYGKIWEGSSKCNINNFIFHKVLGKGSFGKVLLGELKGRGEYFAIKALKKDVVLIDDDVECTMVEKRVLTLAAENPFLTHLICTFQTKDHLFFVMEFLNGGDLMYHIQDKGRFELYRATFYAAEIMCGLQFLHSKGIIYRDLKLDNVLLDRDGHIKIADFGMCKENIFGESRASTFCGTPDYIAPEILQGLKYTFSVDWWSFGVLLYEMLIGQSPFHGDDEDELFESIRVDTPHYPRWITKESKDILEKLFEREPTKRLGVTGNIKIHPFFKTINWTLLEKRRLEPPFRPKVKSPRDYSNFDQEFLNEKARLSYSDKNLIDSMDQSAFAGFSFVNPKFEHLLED
T1 sequence (P05771 2-671 limits assumed): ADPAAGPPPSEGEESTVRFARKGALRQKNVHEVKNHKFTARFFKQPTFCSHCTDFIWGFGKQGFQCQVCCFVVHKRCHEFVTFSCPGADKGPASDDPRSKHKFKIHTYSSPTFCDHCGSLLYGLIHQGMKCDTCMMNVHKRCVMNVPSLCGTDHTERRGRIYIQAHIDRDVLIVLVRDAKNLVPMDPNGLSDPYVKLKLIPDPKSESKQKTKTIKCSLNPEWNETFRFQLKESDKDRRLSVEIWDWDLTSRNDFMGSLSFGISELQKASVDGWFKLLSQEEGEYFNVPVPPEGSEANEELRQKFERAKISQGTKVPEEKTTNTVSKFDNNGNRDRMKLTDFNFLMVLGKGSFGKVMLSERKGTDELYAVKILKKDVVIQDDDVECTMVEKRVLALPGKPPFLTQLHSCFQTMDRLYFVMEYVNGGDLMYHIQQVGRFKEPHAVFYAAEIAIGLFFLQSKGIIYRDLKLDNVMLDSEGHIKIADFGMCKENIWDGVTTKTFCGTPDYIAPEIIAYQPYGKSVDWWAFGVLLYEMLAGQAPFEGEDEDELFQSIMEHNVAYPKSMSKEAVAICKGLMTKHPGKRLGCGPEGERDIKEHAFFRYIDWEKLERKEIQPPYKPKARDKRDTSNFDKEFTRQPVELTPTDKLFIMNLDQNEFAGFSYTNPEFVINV

binding capacity (%) [1]: 13.4%
binding capacity (%) [2]: 0%
binding capacity (%) [4]: 49.4%
binding capacity (%) [5]: 19.8%
binding result [6]: no binding (tested: 200 µM)
binding capacity (%) [7]: 13.9%
binding capacity (%) [8]: 45.2%
binding capacity (%) [9]: 0%
Relative Fluorescence Intensity [10]: 79
binding capacity (%) [11]: 35.7%
binding capacity (%) [12]: 0%
B1: PRE 1 (peptide)
peptide: RRKKGGKDFVVKR
notes: Synthetic peptide, solid phase synthesis; termini given free; also called peptide PRE 1
binding result [3]: no binding (tested: 20X the primary antibody concentration)
